{
  "source": "paper PMC12624148",
  "key": {"[1]": {"biological_target": "CPC I1-190 SB dloop del110-206;Borealin (UniProt Q9NQS7+O15392+Q53HL2)", "assay": "EMSA", "conditions": "histone H3 T3ph (native ligation, H3T32C); EMSA: 20 nM NCP, 10 mM Tris pH 7.5, 250 mM NaCl, 1 mM MgCl2, 1 mM DTT, 1% glycerol, 0.1 mg/ml BSA, 1 h on ice; gel at 4 C. SPR buffer not in the material"}, "[2]": {"biological_target": "H3T3 phosphorylated nucleosome core particle (H3T3ph NCP) (UniProt P62805)", "assay": "mass photometry; CPC-NCP complexes diluted to 20 nM (legend of Fig. EV1D: 50 nM) in 20 mM HEPES pH 8.0, 50 mM NaCl, 1 mM EDTA, 1 mM DTT; Refeyn TwoMP; Gaussian fitting of mass populations"}, "[3]": {"biological_target": "H3T3 phosphorylated nucleosome core particle (H3T3ph NCP) (UniProt P62805)", "assay": "native gel or EMSA; 20 nM H3T3ph NCPs wrapped with centromeric α-satellite DNA; CPC 7.8 nM to 2 µM, 1 h on ice; 10 mM Tris pH 7.5, 250 mM NaCl, 1 mM MgCl2, 1 mM DTT, 1% glycerol, 0.1 mg/ml BSA; gel at 4 °C; unbound NCP band quantified, specific binding with Hill slope"}, "[4]": {"biological_target": "CPC I1-190 6A SB dloop R65A;R66A;K67A;K68A;R69A;R70A;internal_change (UniProt Q9NQS7+O15392+Q53HL2)", "assay": "EMSA", "conditions": "histone H3 T3ph; EMSA: 20 nM NCP, 10 mM Tris pH 7.5, 250 mM NaCl, 1 mM MgCl2, 1 mM DTT, 1% glycerol, 0.1 mg/ml BSA, 1 h on ice; gel at 4 C. SPR buffer not in the material"}, "[5]": {"biological_target": "CPC I1-190 6A SB R65A;R66A;K67A;K68A;R69A;R70A;INCENP (UniProt Q9NQS7+O15392+Q53HL2)", "assay": "EMSA", "conditions": "histone H3 T3ph; EMSA: 20 nM NCP, 10 mM Tris pH 7.5, 250 mM NaCl, 1 mM MgCl2, 1 mM DTT, 1% glycerol, 0.1 mg/ml BSA, 1 h on ice; gel at 4 C. SPR buffer not in the material"}},
  "note": "Values joined by “and” are separate entries in the source; they are usually repeats but may differ in a detail not shown here. Equal values may be shown once.",
  "data": [
    {"substance": "ACAGGATGTATATATGTGACACGTGCCTGGAGACTAGGGAGTAATCCCCTTGGCGGTTAAAACGCGGGGGACAGCGCGTACGTGCGTTTAAGCGGTGCTAGAGCTGTCTACGACCAATTGAGCGGCCTCGGCACCGGGATTCTCCAG (double strand) [H3T3ph NCP, Widom 601 147 bp]", "values": [
      {"measurement": "fold decrease in binding affinity vs P1 (fold decrease in affinity vs P1)", "setting": "[1]", "value": 12}
    ]},
    {"substance": "CPC_(I1-58SB) (containing INCENP 1-58, full-length Survivin and full-length Borealin) (from UniProt Q53HL2 1-280; O15392 1-142; Q9NQS7 1-58) (complex)", "values": [
      {"measurement": "stoichiometry N", "setting": "[2]", "value": "2 CPC per NCP and 1 CPC per NCP"}
    ]},
    {"substance": "CPC_(I1-58SBS266D) (containing INCENP 1-58, full-length Survivin and full-length Borealin dimer breaking mutant, S266D) (from UniProt Q53HL2 1-280; O15392 1-142; Q9NQS7 1-58) (complex)", "values": [
      {"measurement": "stoichiometry N", "setting": "[2]", "value": "1 CPC per NCP and 2 CPC per NCP"}
    ]},
    {"substance": "CPC_(I1-190 6ASB) (INCENP with RRKKRR mutated to AAAAAA) (from UniProt Q53HL2 1-280; O15392 1-142; Q9NQS7 1-190) (complex)", "values": [
      {"measurement": "times weaker binding against CPC (I1-190SB)", "setting": "[3]", "value": 1.5, "unit": "times"}
    ]},
    {"substance": "CPC_(I1-190SB) (CPC containing INCENP 1-190, full-length Survivin and full-length Borealin) (from UniProt Q53HL2 1-280; O15392 1-142; Q9NQS7 1-190) (complex)", "values": [
      {"measurement": "stoichiometry N", "setting": "[2]", "value": 2, "unit": "CPC per NCP"}
    ]},
    {"substance": "H3T3ph NCP, alpha-satellite 147 bp", "values": [
      {"measurement": "binding signal", "setting": "[4]", "value": 13, "unit": "fold"},
      {"measurement": "binding signal (fold weaker vs P1)", "setting": "[5]", "value": 1.5}
    ]}
  ]
}
